Source: US20260167699A1 (Chugai, published 2026)

T1: FcγRIIb extracellular domain, His-tagged (human, UniProt P31994 43-217)
T1 construct: extracellular domain; also called 2b
T1 sequence: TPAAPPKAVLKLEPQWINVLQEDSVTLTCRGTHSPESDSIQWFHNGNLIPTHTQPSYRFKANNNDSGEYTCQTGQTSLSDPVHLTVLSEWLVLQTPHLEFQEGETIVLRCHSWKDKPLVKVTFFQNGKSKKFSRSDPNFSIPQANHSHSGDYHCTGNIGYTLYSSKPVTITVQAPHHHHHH

T2: FcγRIIa(R) extracellular domain, His-tagged (human, UniProt P12318 34-217)
T2 construct: extracellular domain; also called 2aR
T2 sequence: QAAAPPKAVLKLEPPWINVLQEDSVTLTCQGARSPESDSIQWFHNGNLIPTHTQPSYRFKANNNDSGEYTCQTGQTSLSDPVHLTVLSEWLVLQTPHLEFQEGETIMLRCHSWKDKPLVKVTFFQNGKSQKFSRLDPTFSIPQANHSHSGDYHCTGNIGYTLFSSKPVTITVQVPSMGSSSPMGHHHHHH

T3: FcγRIIa(H) extracellular domain, His-tagged (human, UniProt P12318 34-217)
T3 construct: extracellular domain; also called 2aH
T3 sequence: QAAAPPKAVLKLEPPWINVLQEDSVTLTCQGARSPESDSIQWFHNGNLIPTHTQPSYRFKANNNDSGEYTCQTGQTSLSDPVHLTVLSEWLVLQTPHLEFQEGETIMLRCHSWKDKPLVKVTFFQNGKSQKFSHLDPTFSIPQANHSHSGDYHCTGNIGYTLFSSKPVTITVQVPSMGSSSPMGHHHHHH

B1: GpH7-A5/GpH7-B3 variant Q295_04F/GpL16-k0 (antibody, human IgG1, kappa)
heavy 1: not shown
heavy 2: not shown
light: DIVMTQSPLSLPVTPGEPASISCQASESLVHSNRNTYLHWYLQKPGQSPQLLIYKVSNRFSGVPDRFSGSGSGTDFTLKISRVEAEDVGVYYCSQNTHVPPTFGQGTKVEIERTVAAPSVFIFPPSDEQLKSGTASVVCLLNNFYPREAKVQWKVDNALQSGNSQESVTEQDSKDSTYSLSSTLTLSKADYEKHKVYACEVTHQGLSSPVTKSFNRGEC
B2: GpH7-A5/GpH7-B3 variant Q295_07I/GpL16-k0 (antibody, human IgG1, kappa)
heavy 1: not shown
heavy 2: not shown
light: DIVMTQSPLSLPVTPGEPASISCQASESLVHSNRNTYLHWYLQKPGQSPQLLIYKVSNRFSGVPDRFSGSGSGTDFTLKISRVEAEDVGVYYCSQNTHVPPTFGQGTKVEIERTVAAPSVFIFPPSDEQLKSGTASVVCLLNNFYPREAKVQWKVDNALQSGNSQESVTEQDSKDSTYSLSSTLTLSKADYEKHKVYACEVTHQGLSSPVTKSFNRGEC
B3: GpH7-A5/GpH7-B3 variant Q295_06M/GpL16-k0 (antibody, human IgG1, kappa)
heavy 1: not shown
heavy 2: not shown
light: DIVMTQSPLSLPVTPGEPASISCQASESLVHSNRNTYLHWYLQKPGQSPQLLIYKVSNRFSGVPDRFSGSGSGTDFTLKISRVEAEDVGVYYCSQNTHVPPTFGQGTKVEIERTVAAPSVFIFPPSDEQLKSGTASVVCLLNNFYPREAKVQWKVDNALQSGNSQESVTEQDSKDSTYSLSSTLTLSKADYEKHKVYACEVTHQGLSSPVTKSFNRGEC
B4: GpH7-A5/GpH7-B3 variant Q295_10E/GpL16-k0 (antibody, human IgG1, kappa)
heavy 1: not shown
heavy 2: not shown
light: DIVMTQSPLSLPVTPGEPASISCQASESLVHSNRNTYLHWYLQKPGQSPQLLIYKVSNRFSGVPDRFSGSGSGTDFTLKISRVEAEDVGVYYCSQNTHVPPTFGQGTKVEIERTVAAPSVFIFPPSDEQLKSGTASVVCLLNNFYPREAKVQWKVDNALQSGNSQESVTEQDSKDSTYSLSSTLTLSKADYEKHKVYACEVTHQGLSSPVTKSFNRGEC
B5: GpH7-A5/GpH7-B3 variant Q295_09D/GpL16-k0 (antibody, human IgG1, kappa)
heavy 1: not shown
heavy 2: not shown
light: DIVMTQSPLSLPVTPGEPASISCQASESLVHSNRNTYLHWYLQKPGQSPQLLIYKVSNRFSGVPDRFSGSGSGTDFTLKISRVEAEDVGVYYCSQNTHVPPTFGQGTKVEIERTVAAPSVFIFPPSDEQLKSGTASVVCLLNNFYPREAKVQWKVDNALQSGNSQESVTEQDSKDSTYSLSSTLTLSKADYEKHKVYACEVTHQGLSSPVTKSFNRGEC
B6: GpH7-A5/GpH7-B3 variant Q295_05P/GpL16-k0 (antibody, human IgG1, kappa)
heavy 1: not shown
heavy 2: not shown
light: DIVMTQSPLSLPVTPGEPASISCQASESLVHSNRNTYLHWYLQKPGQSPQLLIYKVSNRFSGVPDRFSGSGSGTDFTLKISRVEAEDVGVYYCSQNTHVPPTFGQGTKVEIERTVAAPSVFIFPPSDEQLKSGTASVVCLLNNFYPREAKVQWKVDNALQSGNSQESVTEQDSKDSTYSLSSTLTLSKADYEKHKVYACEVTHQGLSSPVTKSFNRGEC
B7: GpH7-A5/GpH7-B3 variant Q295_08L/GpL16-k0 (antibody, human IgG1, kappa)
heavy 1: not shown
heavy 2: not shown
light: DIVMTQSPLSLPVTPGEPASISCQASESLVHSNRNTYLHWYLQKPGQSPQLLIYKVSNRFSGVPDRFSGSGSGTDFTLKISRVEAEDVGVYYCSQNTHVPPTFGQGTKVEIERTVAAPSVFIFPPSDEQLKSGTASVVCLLNNFYPREAKVQWKVDNALQSGNSQESVTEQDSKDSTYSLSSTLTLSKADYEKHKVYACEVTHQGLSSPVTKSFNRGEC

Legend:
Assay in all cases: SPR, vs GpH7-A5/GpH7-B3/GpL16-k0 =100
[1] = biological target: T1, FcγRIIb extracellular domain, His-tagged
[2] = biological target: T2, FcγRIIa(R) extracellular domain, …
[3] = biological target: T4, FcγRIIIa extracellular domain, His-tagged (human, UniProt P08637 17-208)
T4 construct: extracellular domain; also called 3a

[4] = biological target: T3, FcγRIIa(H) extracellular domain, …
[5] = biological target: T5, FcγRIa extracellular domain, His-tagged (human, UniProt P12314 16-292)
T5 construct: extracellular domain; also called 1a
T5 sequence (P12314 other isoform, or with tags, fused parts or gaps): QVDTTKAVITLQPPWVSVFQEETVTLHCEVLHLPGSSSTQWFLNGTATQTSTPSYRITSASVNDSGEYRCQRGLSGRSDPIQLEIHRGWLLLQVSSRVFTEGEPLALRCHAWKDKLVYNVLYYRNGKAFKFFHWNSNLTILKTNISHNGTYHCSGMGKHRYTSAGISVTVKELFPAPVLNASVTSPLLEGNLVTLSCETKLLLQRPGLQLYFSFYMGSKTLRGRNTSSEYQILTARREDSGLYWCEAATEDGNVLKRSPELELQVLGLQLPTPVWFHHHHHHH

T4 sequence (P08637 other isoform, or with tags, fused parts or gaps): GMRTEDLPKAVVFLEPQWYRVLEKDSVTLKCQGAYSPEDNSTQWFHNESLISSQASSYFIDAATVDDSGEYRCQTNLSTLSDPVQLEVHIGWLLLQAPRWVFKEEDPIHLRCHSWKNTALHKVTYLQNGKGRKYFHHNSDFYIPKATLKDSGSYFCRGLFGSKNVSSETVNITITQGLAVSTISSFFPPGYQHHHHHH

Binder	He/Con 2b [1]	He/Con 2aR [2]	He/Con 3a [3]	He/Con 2aH [4]	He/Con 1a [5]
B1	72.6 % of control	82.8 % of control	75.1 % of control	87.4 % of control	101 % of control
B2	94.5 % of control	97.3 % of control	101 % of control	117 % of control	101 % of control
B3	101 % of control	101 % of control	100 % of control	111 % of control	102 % of control
B4	106 % of control	101 % of control	105 % of control	112 % of control	101 % of control
B5	68.1 % of control	68.7 % of control	85.6 % of control	62.6 % of control	98.5 % of control
B6	75.7 % of control	86.6 % of control	74.4 % of control	118 % of control	102 % of control
B7	134 % of control	118 % of control	120 % of control	128 % of control	103 % of control
